Source: patent US20110301335A1 (published 2011)
Positions count from the first letter of the chain named.

T1: human TNFR1 on MRC-5 cells (human, UniProt P19438 30-455)
T1 sequence (looked up): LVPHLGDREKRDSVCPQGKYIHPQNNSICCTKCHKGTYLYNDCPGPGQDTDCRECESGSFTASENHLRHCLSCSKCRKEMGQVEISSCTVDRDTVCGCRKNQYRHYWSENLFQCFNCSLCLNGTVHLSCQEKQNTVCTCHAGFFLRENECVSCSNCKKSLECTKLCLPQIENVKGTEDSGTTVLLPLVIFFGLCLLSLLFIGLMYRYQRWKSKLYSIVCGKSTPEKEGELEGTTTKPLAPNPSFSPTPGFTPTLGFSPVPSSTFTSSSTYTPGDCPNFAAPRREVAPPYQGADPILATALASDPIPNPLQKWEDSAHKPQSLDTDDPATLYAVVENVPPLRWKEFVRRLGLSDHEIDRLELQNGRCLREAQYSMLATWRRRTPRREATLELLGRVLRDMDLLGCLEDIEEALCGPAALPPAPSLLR

B1: DMS0121 (bispecific antibody)
chain: EVQLLESGGGLVQPGGSLRLSCAASGFTFVKYSMGWVRQAPGKGLEWVSQISNTADRTYYAHSVKGRFTISRDNSKNTLYLQMNSLRAEDTAVYYCAIYTGRWVPFEYWGQGTLVTVSSASGGGGSGGGGSGGGGSDIQMTQSPSSLSASVGDRVTITCRASRPIGTTLSWYQQKPGKAPKLLILWNSRLQSGVPSRFSGSGSGTDFTLTISSLQPEDFATYYCAQAGTHPTTFGQGTKVEIKR
B2: DMS0182 (bispecific antibody)
chain: EVQLLESGGGLVQPGGSLRLSCAASGFTFVKYSMGWVRQAPGKGPEWVSQISNTGDRTYYADSVKGRFTISRDNSKNTLYLQMNSLRAEDTAVYYCAIYTGRWEPFDYWGQGTLVTVSSASTDIQMTQSPSSLSASVGDRVTITCRASRPIGTTLSWYQQKPGKAPKLLIWFGSRLQSGVPSRFSGSGSGTDFTLTISSLQPEDFATYYCAQAGTHPTTFGQGTKVEIKRAAAEQKLISEEDLN
B3: DMS0186 (bispecific antibody)
chain: B2 chain with T154M, W171L
B4: DMS0184 (bispecific antibody)
chain: EVQLLESGGGLVQPGGSLRLSCAASGFTFVKYSMGWVRQAPGKGPEWVSQISNTGDRTYYADSVKGRFTISRDNSKNTLYLQMNSLRAEDTAVYYCAIYTGRWEPFDYWGQGTLVTVSSASTSGPSDIQMTQSPSSLSASVGDRVTITCRASRPIGTTLSWYQQKPGKAPKLLIWFGSRLQSGVPSRFSGSGSGTDFTLTISSLQPEDFATYYCAQAGTHPTTFGQGTKVEIKR
B5: DMS0116 (bispecific antibody)
chain: B4 chain with P45L, G55A, D62H, E104V, D107E, T158M, W175L
B6: DMS0115 (bispecific antibody)
chain: B4 chain with P45L, G55A, D62H, E104V, D107E, W175L, F176W, G177N
B7: DMS0118 (bispecific antibody)
chain: EVQLLESGGGLVQPGGSLRLSCAASGFTFVKYSMGWVRQAPGKGLEWVSQISNTADRTYYAHSVKGRFTISRDNSKNTLYLQMNSLRAEDTAVYYCAIYTGRWVPFEYWGQGTLVTVSSASTSGPSDIQMTQSPSSLSASVGDRVTITCRASQWIGSQLSWYQQKPGKAPKLLIMWRSSLQSGVPSRFSGSGSGTDFTLTISSLQPEDFATYYCAQGLMKPMTFGQGTKVEIKR
B8: DMS0111 (bispecific antibody)
chain: EVQLLESGGGLVQPGGSLRLSCAASGFTFVKYSMGWVRQAPGKGLEWVSQISNTADRTYYAHSVKGRFTISRDNSKNTLYLQMNSLRAEDTAVYYCAIYTGRWVPFEYWGQGTLVTVSSASTDIQMTQSPSSLSASVGDRVTITCRASRPIGTTLSWYQQKPGKAPKLLILWNSRLQSGVPSRFSGSGSGTDFTLTISSLQPEDFATYYCAQAGTHPTTFGQGTKVEIKR
B9: DMS0112 (bispecific antibody)
chain: B8 chain with T154M, W172F, N173G
B10: DMS0168 (bispecific antibody)
chain: EVQLLESGGGLVQPGGSLRLSCAASGFTFVKYSMGWVRQAPGKGLEWVSQISNTADRTYYAHSVKGRFTISRDNSKNTLYLQMNSLRAEDTAVYYCAIYTGRWVPFEYWGQGTLVTVSSASTSGPSDIQMTQSPSSLSASVGDRVTITCRASQSIIKHLKWYQQKPGKAPKLLIYGASRLQSGVPSRFSGSGSGTDFTLTISSLQPEDFATYYCQQGARWPQTFGQGTKVEIKRAAAEQKLISEEDLN
B11: DMS0124 (bispecific antibody)
chain: EVQLLESGGGLVQPGGSLRLSCAASGFTFVKYSMGWVRQAPGKGLEWVSQISNTADRTYYAHSVKGRFTISRDNSKNTLYLQMNSLRAEDTAVYYCAIYTGRWVPFEYWGQGTLVTVSSASGGGGSGGGGSGGGGSDIQMTQSPSSLSASVGDRVTITCRASQWIGSQLSWYQQKPGKAPKLLIMWRSSLQSGVPSRFSGSGSGTDFTLTISSLQPEDFATYYCAQGLMKPMTFGQGTKVEIKR
B12: DMS0188 (bispecific antibody)
chain: EVQLLESGGGLVQPGGSLRLSCAASGFTFVKYSMGWVRQAPGKGPEWVSQISNTGDRTYYADSVKGRFTISRDNSKNTLYLQMNSLRAEDTAVYYCAIYTGRWEPFDYWGQGTLVTVSSASTSGPSDIQMTQSPSSLSASVGDRVTITCRASRPIGTMLSWYQQKPGKAPKLLILFGSRLQSGVPSRFSGSGSGTDFTLTISSLQPEDFATYYCAQAGTHPTTFGQGTKVEIKRAAAEQKLISEEDLN
B13: DMS0163 (bispecific antibody)
chain: B12 chain with F176A, G177F
B14: DMS0169 (bispecific antibody)
chain: B12 chain with P45L, G55A, D62H, E104V, D107E
B15: DOM1h-574 (other)
VH: EVQLLESGGGLVQPGGSLRLSCAASGFTFVKYSMGWVRQAPGKGLEWVSQISNTGGHTYYADSVKGRFTISRDNSKNTLYLQMNSLRAEDTAVYYCAKYTGRWEPFDYWGQGTLVTVSS
B16: DOM1h-574-13 (other)
VH: B15 VH with G56D, H57R
B17: DOM1h-574-8 (other)
VH: B15 VH with L45P, K98I
B18: DOM1h-574-15 (other)
VH: B15 VH with G56D, K98I
B19: DOM1h-574-18 (other)
VH: B15 VH with V30G, G44D, G56D, H57R, K98I
B20: DOM1h-574-12 (other)
VH: B15 VH with G56D
B21: DOM1h-574-16 (other)
VH: B15 VH with L45P, G56D, H57R, K98I
B22: DOM1h-574-11 (other)
VH: B15 VH with Y108H
B23: DOM1h-574-17 (other)
VH: B15 VH with L45P, G56D, K98I

Molecular target: T1, human TNFR1 on MRC-5 cells
Experiment: cell-based or functional assay

Row | Binder | MRC5 (ND50 in nM) [nM] | ND50 (MRC5) [nM]
1 | B1 | 1.8 | –
2 | B2 | – | 6
3 | B3 | – | 20
4 | B4 | – | 19
5 | B5 | 1.7 | –
6 | B6 | 1.7 | –
7 | B7 | 1.4 | –
8 | B8 | 1.6 | –
9 | B9 | 1.3 | –
10 | B10 | – | 16
11 | B11 | 1.9 | –
12 | B12 | – | 17
13 | B13 | – | 12
14 | B14 | – | 2.7

Molecular target: T1, human TNFR1 on MRC-5 cells
Experiment: cell-based or functional assay
Remark: another data set of the same source

Row | Binder | MRC-5 EC50, fold of the EC50 of DOM1h-574-16 [fold] | MRC-5 EC50 [nM]
15 | B15 | ~200 | –
16 | B16 | – | 300
17 | B17 | – | 10
18 | B18 | – | 300
19 | B19 | – | 17
20 | B20 | – | 130
21 | B21 | – | 8
22 | B22 | – | 800
23 | B23 | – | 20
